The text below walks through data of the supplement of paper PMC7877785.

The nature of this data set: self-splicing fitness, log relative to wild type (ln ratio); higher = more splicing; Tetrahymena group I intron in knt gene, E. coli kanamycin selection, DiMSum; sequences stand for … in CUCUCU…GGAGGGAAAAGUUAUCAGGCAUGCACCUGGUAGCUAGUCUUUAAACCAAUAGAUUGCAUCGGUUUAAAAGGCAAGACCGUCAAAUUGCGGGAAAGGGGUCAACAGCCGUUCAGUACCAAGUCUCAGGGGAAACUUUGAGAUGGCCUUGCAAAGGGUAUGGUAAUAAGCUGACGGACAUGGUCCUAACCACGCAGCCAAGUCCUAAGUCAACAGAUCUUCUGUUGAUAUGGAUGCAGUUCACAGACUAAAUGUCGGUCGGGGAAGAUGUAUUCUUCUCAUAAGAUAUAGUCGGACCUCUCCUUAAUGGGAGCUAGCGGAUGAAGUGAUGCAACACUGGAGCCGCUGGGAACUAAUUUGUAUGCGAAAGUAUAUUGAUUAGUUUUGGAGUACUCGUGGUCG
The method in brief: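 Fitness was computed with DiMSum as the error-weighted combination of replicate fold changes, kanamycin versus none, each normalised to wild type. The library randomised all eight intron nucleotides of the P1ex region, with the intron placed in the knt kanamycin-resistance gene on pET-22b(+) in E. coli BL21(DE3). Six replicate transformations were grown overnight at 37°C or 30°C on LB agar with or without 25 μg/mL kanamycin, plus 100 μg/mL carbenicillin, 50 μM IPTG and 0.2% rhamnose. Pooled colonies were amplicon-sequenced on an Illumina HiSeq 2500.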

± gives the uncertainty stated by the source.

On to CCUAAGCAAUAUUACGCAGU, for which the “self-splicing fitness (ln)” value reads like this: (30 °C) -3.23 ± 0.19; (37 °C) -1.76 ± 0.19.

Take AGUGAGCAAUAUUACGCCGU: for the setting “30 °C”, the “self-splicing fitness (ln)” value is -2.39 ± 0.38.

Take GUGCAGCAAUAUUACGCUUG: the “self-splicing fitness (ln)” value was -3.09 ± 0.21 (30 °C) and -2.02 ± 0.27 (37 °C).

For the sequence GAAGAGCAAUAUUACGAGCC, the “self-splicing fitness (ln)” value was -1.61 ± 0.24 (30 °C) and -0.252 ± 0.36 (37 °C).

Regarding UCAUAGCAAUAUUACGUCCC, the “self-splicing fitness (ln)” value (30 °C) is -2.19 ± 0.49.

For the sequence UUAAAGCAAUAUUACGAGGG, the “self-splicing fitness (ln)” value runs as follows: (30 °C) -2.1 ± 0.17; (37 °C) -1.12 ± 0.26.

As to CGUUAGCAAUAUUACGAAUC, the “self-splicing fitness (ln)” value is -2.95 ± 0.28 (30 °C) and -2.42 ± 0.3 (37 °C).

As for AGCUAGCAAUAUUACGGUAG, the “self-splicing fitness (ln)” value is, setting by setting: (30 °C) -3.91 ± 0.27; (37 °C) -3.18 ± 0.23.

On to CUCUAGCAAUAUUACGGGUA, for which the “self-splicing fitness (ln)” value (30 °C) was -2.21 ± 0.14 and the “self-splicing fitness (ln)” value (37 °C) was -1.05 ± 0.12.

As to CCAUAGCAAUAUUACGACGA, the “self-splicing fitness (ln)” value was -3.14 ± 0.21 (30 °C) and -1.42 ± 0.14 (37 °C).

As for UCAGAGCAAUAUUACGGGGU, the “self-splicing fitness (ln)” value is, setting by setting: (30 °C) -3.35 ± 0.23; (37 °C) -2.88 ± 0.27.

Turning to CAUAAGCAAUAUUACGAGCG, the “self-splicing fitness (ln)” value (30 °C) is 0.0605 ± 0.064 and the “self-splicing fitness (ln)” value (37 °C) worked out at 0.0464 ± 0.088.

On to UGGAAGCAAUAUUACGAACC, for which the “self-splicing fitness (ln)” value is -1.6 ± 0.13 (30 °C) and -0.663 ± 0.12 (37 °C).

For the sequence GAAGAGCAAUAUUACGGGUC, the “self-splicing fitness (ln)” value (30 °C) was -1.86 ± 0.27.

Regarding CUGCAGCAAUAUUACGGAUC, under “37 °C”, the “self-splicing fitness (ln)” value was -2.38 ± 0.21.

With GCCAAGCAAUAUUACGGCCA, the “self-splicing fitness (ln)” value was -1.42 ± 0.21 (30 °C) and -1.18 ± 0.25 (37 °C).

In the case of CAGCAGCAAUAUUACGCCAA, the “self-splicing fitness (ln)” value runs as follows: (30 °C) -3.43 ± 0.32; (37 °C) -1.87 ± 0.17.

In the case of AUUGAGCAAUAUUACGUAUA, the “self-splicing fitness (ln)” value was -2.67 ± 0.28 (30 °C) and -2.98 ± 0.32 (37 °C).

As to UUACAGCAAUAUUACGCAUC, the “self-splicing fitness (ln)” value (30 °C) is -3.36 ± 0.15 and the “self-splicing fitness (ln)” value (37 °C) was -1.6 ± 0.13.

On to GCGGAGCAAUAUUACGCUCA, for which the “self-splicing fitness (ln)” value was -0.528 ± 0.3 (30 °C) and -0.54 ± 0.26 (37 °C).

For CAUAAGCAAUAUUACGCCAC, the “self-splicing fitness (ln)” value is -2.8 ± 0.37 (30 °C) and -2.59 ± 0.39 (37 °C).

With CACUAGCAAUAUUACGGCCG, the “self-splicing fitness (ln)” value runs as follows: (30 °C) 0.0261 ± 0.086; (37 °C) -0.0313 ± 0.12.

In the case of GACGAGCAAUAUUACGAAGG, the “self-splicing fitness (ln)” value (30 °C) was -3.03 ± 0.19 and the “self-splicing fitness (ln)” value (37 °C) was -2.52 ± 0.33.

With GGAUAGCAAUAUUACGUGUA, the “self-splicing fitness (ln)” value was -2.33 ± 0.13 (30 °C) and -2.18 ± 0.12 (37 °C).

Regarding GUCAAGCAAUAUUACGCUAU, the “self-splicing fitness (ln)” value reads like this: (30 °C) -4.05 ± 0.17; (37 °C) -3.81 ± 0.15.

For UCGUAGCAAUAUUACGCUCC, the “self-splicing fitness (ln)” value (30 °C) was -2.47 ± 0.25.

Turning to AACUAGCAAUAUUACGAACG, the “self-splicing fitness (ln)” value is -0.824 ± 0.083 (30 °C) and -0.339 ± 0.12 (37 °C).

Regarding GUACAGCAAUAUUACGACAA, the “self-splicing fitness (ln)” value was -1.77 ± 0.14 (30 °C) and -0.826 ± 0.12 (37 °C).

For the sequence AGUGAGCAAUAUUACGCGUG, the “self-splicing fitness (ln)” value is -4.06 ± 0.28 (30 °C) and -2.34 ± 0.15 (37 °C).

Take UGUGAGCAAUAUUACGUAGC: the “self-splicing fitness (ln)” value reads like this: (30 °C) -4.22 ± 0.42; (37 °C) -1.65 ± 0.29.

As to CUAUAGCAAUAUUACGGUAA, the “self-splicing fitness (ln)” value was -3.01 ± 0.23 (30 °C) and -1.69 ± 0.18 (37 °C).

AGCCAGCAAUAUUACGCCCU: the “self-splicing fitness (ln)” value is, setting by setting: (30 °C) 0.0781 ± 0.11; (37 °C) 0.234 ± 0.13.

As for CCGGAGCAAUAUUACGAUAU, for the setting “37 °C”, the “self-splicing fitness (ln)” value was -2.37 ± 0.42.

For the sequence GCUGAGCAAUAUUACGAAGU, the “self-splicing fitness (ln)” value (37 °C) is -1.72 ± 0.41.

In the case of UCUCAGCAAUAUUACGAACC, the “self-splicing fitness (ln)” value (30 °C) is -1.84 ± 0.18 and the “self-splicing fitness (ln)” value (37 °C) was -1.69 ± 0.28.

AGACAGCAAUAUUACGAUUU: the “self-splicing fitness (ln)” value reads like this: (30 °C) 0.0877 ± 0.068; (37 °C) 0.119 ± 0.086.

Consider CGUAAGCAAUAUUACGCAAA, for which the “self-splicing fitness (ln)” value (37 °C) is -1.48 ± 0.34.

Turning to GGACAGCAAUAUUACGGAUA, the “self-splicing fitness (ln)” value runs as follows: (30 °C) -1.13 ± 0.11; (37 °C) -1.51 ± 0.093.

Regarding UGUCAGCAAUAUUACGAACC, the “self-splicing fitness (ln)” value reads like this: (30 °C) -0.269 ± 0.27; (37 °C) -0.024 ± 0.26.

As for CUGAAGCAAUAUUACGCGUC, the “self-splicing fitness (ln)” value (30 °C) is -3.62 ± 0.33 and the “self-splicing fitness (ln)” value (37 °C) is -3.55 ± 0.35.
